Source: patent US20180194862A1 (AbbVie / Abbott, published 2018)

Tests used:
mouse CD40 = biological target: T1, mouse CD40 (mouse, UniProt P27512 20-193, limits assumed); experiment: FACS
T1 construct: also called murine CD40
T1 sequence (looked up): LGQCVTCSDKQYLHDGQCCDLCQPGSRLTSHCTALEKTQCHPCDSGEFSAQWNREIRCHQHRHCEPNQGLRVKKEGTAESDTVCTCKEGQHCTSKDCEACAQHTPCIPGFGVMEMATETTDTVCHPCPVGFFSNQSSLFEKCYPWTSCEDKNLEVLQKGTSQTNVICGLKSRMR

dog CD40 = biological target: T2, dog CD40 (dog, UniProt Q7YRL5 21-194, limits assumed); experiment: FACS
T2 sequence (looked up): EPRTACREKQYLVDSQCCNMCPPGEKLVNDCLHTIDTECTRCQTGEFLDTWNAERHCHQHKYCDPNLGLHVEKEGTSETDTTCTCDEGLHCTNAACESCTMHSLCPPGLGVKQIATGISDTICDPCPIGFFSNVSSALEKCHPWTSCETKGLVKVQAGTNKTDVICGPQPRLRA

[1] = biological target: T3, human CD40 on cells (HEK293 stable transfectants, HEK-Blue CD40 cells, human B cells, monocytic cells, … (human, UniProt P25942 21-277)); experiment: FACS, HEK293 transfectants
T3 construct: also called cell-surface CD40
T3 sequence (P25942 21-277 limits assumed): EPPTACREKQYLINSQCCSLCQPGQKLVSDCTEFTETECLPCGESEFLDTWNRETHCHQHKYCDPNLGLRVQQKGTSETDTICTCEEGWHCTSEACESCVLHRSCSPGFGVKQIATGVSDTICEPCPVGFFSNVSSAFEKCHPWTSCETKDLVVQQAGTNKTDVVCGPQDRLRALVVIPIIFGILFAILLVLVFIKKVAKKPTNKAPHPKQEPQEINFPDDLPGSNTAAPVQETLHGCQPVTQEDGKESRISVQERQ

B1: huAb8-2 (antibody, human IgG1, V domains shown)
VH: EVQLVQSGAEVKKPGSSVKVSCKASGYTFTDYYINWVRQAPGQGLEWIGWIFPGSGSVYSNEQFKGRATLTVDRSTSTAYMELSSLRSEDTAVYFCASSLGKFAYWGQGTLVTVSS
VL: DIQMTQSPSSLSASVGDRVTITCKASQSVVTAVAWYQQKPGKSPKLLIYSASNRYTGVPSRFSGSGSGTDFTLTISSLQPEDFATYFCQQYSSYPYTFGGGTKVEIK
notes: human IgG1, kappa
B1: no binding (mouse CD40); no binding (dog CD40); binds [1].
